Common to all, as to assay: peptide SPOT array, c-Myc-tagged receptor at 1 uM or 100 nM, anti-c-Myc-Cy3
In one test the target is Bcl-2, P10415.
The target of the next test is T1, Bcl-w, Q92843.
T1 chain: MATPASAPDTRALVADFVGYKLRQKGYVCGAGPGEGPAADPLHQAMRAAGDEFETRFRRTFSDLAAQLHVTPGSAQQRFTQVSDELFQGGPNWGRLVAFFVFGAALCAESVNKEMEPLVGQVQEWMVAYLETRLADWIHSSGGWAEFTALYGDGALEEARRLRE

The target in a further test is T2, Bfl-1, Q16548.
T2 chain: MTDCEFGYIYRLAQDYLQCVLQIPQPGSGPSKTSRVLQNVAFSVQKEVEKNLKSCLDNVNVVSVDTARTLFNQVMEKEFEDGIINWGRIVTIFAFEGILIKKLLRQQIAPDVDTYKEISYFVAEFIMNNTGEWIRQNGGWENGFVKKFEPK

The target in a further test is Bcl-xL, Q07817.
The next test has as its target T3, Mcl-1, Q07820.
T3 chain: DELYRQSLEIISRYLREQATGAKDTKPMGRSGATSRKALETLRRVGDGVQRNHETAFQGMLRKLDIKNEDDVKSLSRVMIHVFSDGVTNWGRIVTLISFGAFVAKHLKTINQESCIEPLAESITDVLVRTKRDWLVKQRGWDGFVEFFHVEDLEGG

The results in this text go back to PMC4072508, “Genome-Wide Prediction and Validation of Peptides That Bind Human Prosurvival Bcl-2 Proteins” (PLoS Computational Biology, 2014).

Chain of Bcl-xL, Q07817 (Q07817 1-209): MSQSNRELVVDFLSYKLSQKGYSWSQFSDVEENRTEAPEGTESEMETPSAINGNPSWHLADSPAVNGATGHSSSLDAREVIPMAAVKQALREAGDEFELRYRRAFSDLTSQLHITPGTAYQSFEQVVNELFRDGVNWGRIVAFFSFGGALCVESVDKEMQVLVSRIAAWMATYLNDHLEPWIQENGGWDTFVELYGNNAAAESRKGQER
Chain of Bcl-2, P10415 (P10415 1-217): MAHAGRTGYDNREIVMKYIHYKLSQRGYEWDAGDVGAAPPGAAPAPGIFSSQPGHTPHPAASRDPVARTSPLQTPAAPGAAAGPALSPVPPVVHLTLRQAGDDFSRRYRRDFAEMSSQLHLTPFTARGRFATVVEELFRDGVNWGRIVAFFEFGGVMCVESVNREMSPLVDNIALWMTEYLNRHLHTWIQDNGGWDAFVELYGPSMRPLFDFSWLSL

As for KGKIDVCIVLLQHGADPNIRNTDGKS, the SPOT signal as a fraction of Bim BH3's signal on the same receptor and array with Bcl-2, P10415 stood at 0.02; with Bcl-w, Q92843 it was 0.03; in the test with Bfl-1, Q16548, 0.1.
On the same counts, the results for SGEFARICRDLSHIGDAVVISCAKDG [PCNA] are 0.01, 0.03 and 0.03.
VKVFGKAVQALSRISDEFWLDPSKKG [RAD9B]: the SPOT signal as a fraction of Bim BH3's signal on the same receptor and array came out at 0.1 with Bcl-2, P10415; 0.89 with Bcl-w, Q92843; 0.23 in the test with Bfl-1, Q16548.
As to VDVIDDHERGLIRNGRDFLLALERQG [DEDD], the SPOT signal as a fraction of Bim BH3's signal on the same receptor and array was 0.01 with Bcl-2, P10415; 0.02 with Bcl-w, Q92843; 0.03 with Bcl-xL, Q07817; 0.02 in the test with Bfl-1, Q16548; 0.04 with Mcl-1, Q07820.
Regarding GVAASDFIRSLDHCGDLALEGVFSHK [NLRC4], the SPOT signal as a fraction of Bim BH3's signal on the same receptor and array came to 0.01 with Bcl-2, P10415; 0.02 in the test with Bcl-w, Q92843; 0.02 with Bcl-xL, Q07817; 0.01 in the test with Bfl-1, Q16548; 0.02 in the test with Mcl-1, Q07820.
VFERCELARTLKRLGMDGYRGISLAN [LYZ]: the SPOT signal as a fraction of Bim BH3's signal on the same receptor and array was found to be 0.27 with Bcl-2, P10415; 0.69 with Bcl-w, Q92843; 0.65 with Bcl-xL, Q07817; 0.74 with Bfl-1, Q16548; 0.38 in the test with Mcl-1, Q07820.
For EQILAKIVELLKYSGDQLERKLKKDK [BCL2L14], the SPOT signal as a fraction of Bim BH3's signal on the same receptor and array worked out at 0.49 in the test with Bcl-2, P10415; 0.74 with Bcl-w, Q92843; 0.75 with Bfl-1, Q16548.
Regarding HVDGLHSSEELRNLGWDFSQEKPSTT [SETD2], the SPOT signal as a fraction of Bim BH3's signal on the same receptor and array stood at 0.01 with Bcl-2, P10415; 0.02 with Bcl-w, Q92843; 0.02 with Bfl-1, Q16548.
Regarding MEGSDALALRLACIGDEMDVSLRAPR [BIK], the SPOT signal as a fraction of Bim BH3's signal on the same receptor and array was 0.72 in the test with Bcl-2, P10415; 0.74 in the test with Bcl-w, Q92843; 0.43 with Bfl-1, Q16548.
On to EGTKIVLGKQLIESADEVRRKSLVLK [TAF1], for which the SPOT signal as a fraction of Bim BH3's signal on the same receptor and array with Bcl-2, P10415 is 0.07; with Bcl-w, Q92843, 0.48; in the test with Bfl-1, Q16548 it was 0.34.
With NWFGDWSTEALYQVGKEFTSKMDLEK [DYNC1H1], the SPOT signal as a fraction of Bim BH3's signal on the same receptor and array in the test with Bcl-2, P10415 stood at 0.02; in the test with Bcl-w, Q92843, 0.03; in the test with Bcl-xL, Q07817, 0.04; with Bfl-1, Q16548, 0.03; with Mcl-1, Q07820 it was 0.03.
With AGLDMNISQFLKSLGLEHLRDIFETE, the SPOT signal as a fraction of Bim BH3's signal on the same receptor and array came out at 0.01 in the test with Bcl-2, P10415; 0.02 in the test with Bcl-w, Q92843; 0.03 with Bfl-1, Q16548.
Regarding ALNAQPSAEELSKIADSVNLPLDVVK [ZEB1], the SPOT signal as a fraction of Bim BH3's signal on the same receptor and array in the test with Bcl-2, P10415 came to 0.01; with Bcl-w, Q92843 it was 0.01; with Bcl-xL, Q07817 it was 0.02; in the test with Bfl-1, Q16548 it was 0.01; with Mcl-1, Q07820, 0.02.
As for CLSCDLCGCRLGEVGRRLYYKLGRKL [LMO2], the SPOT signal as a fraction of Bim BH3's signal on the same receptor and array with Bcl-2, P10415 came out at 0.59; with Bcl-w, Q92843, 1.8; with Bcl-xL, Q07817 it was 1.18; in the test with Bfl-1, Q16548 it was 1.61; in the test with Mcl-1, Q07820, 0.86.
On the same counts, the results for YTCRGHIPGFLQTTADEFCFYYARKD [HHIP] are 0.02, 0.1, 0.07, 0.06 and 0.04.
On to HPKRKQVTELLLRKGANVNEKNKDFM, for which the SPOT signal as a fraction of Bim BH3's signal on the same receptor and array turned out to be 0.13 with Bcl-2, P10415; 0.5 with Bcl-w, Q92843; 0.48 in the test with Bfl-1, Q16548.
PFDCRDYAVVLRKYADKIYNISMKHP [FOLH1B]: the SPOT signal as a fraction of Bim BH3's signal on the same receptor and array with Bcl-2, P10415 worked out at 0.36; with Bcl-w, Q92843, 1.25; with Bfl-1, Q16548 it was 0.63.
DISALTASNLLKKYAEKYSGILEGPV [FIGN]: the SPOT signal as a fraction of Bim BH3's signal on the same receptor and array with Bcl-2, P10415 stood at 0.06; in the test with Bcl-w, Q92843, 0.13; with Bcl-xL, Q07817 it was 0.1; with Bfl-1, Q16548, 0.33; with Mcl-1, Q07820, 0.13.
Regarding AYRGRGIAKHLAKAALDFVVEEDLKA [C17orf103], the SPOT signal as a fraction of Bim BH3's signal on the same receptor and array is 0.05 with Bcl-2, P10415; 0.29 with Bcl-w, Q92843; 0.36 with Bcl-xL, Q07817; 0.11 with Bfl-1, Q16548; 0.07 in the test with Mcl-1, Q07820.
The corresponding values for SQRGTDFSVLLSSAGDSFSQFRFAEE [AVEN] are 0.02, 0.07, 0.16, 0.03 and 0.06.
On to FQQLRHRIQDLEQLAKEQDKESEKQL [BNIP1], for which the SPOT signal as a fraction of Bim BH3's signal on the same receptor and array with Bcl-2, P10415 was found to be 0.02; with Bcl-w, Q92843 it was 0.04; in the test with Bfl-1, Q16548, 0.08.
QLRLSDAGQYLCQAGDDSNSNKKNAD [PIGR]: the SPOT signal as a fraction of Bim BH3's signal on the same receptor and array with Bcl-2, P10415 amounted to 0.01; with Bcl-w, Q92843, 0.02; in the test with Bcl-xL, Q07817, 0.03; with Bfl-1, Q16548 it was 0.03; with Mcl-1, Q07820, 0.02.
